Data as given in patent US20220251204A1 (AstraZeneca / MedImmune, published 2022).
Changes are numbered by the printed parent chain.

Assays:
[1] = target: T1, human PD-1 expressed on cells (human, UniProt Q15116 25-288); test: cell-based or functional assay
[2] = target: T2, human CTLA-4 expressed on cells (human, UniProt P16410 36-223); test: cell-based or functional assay
T2 sequence: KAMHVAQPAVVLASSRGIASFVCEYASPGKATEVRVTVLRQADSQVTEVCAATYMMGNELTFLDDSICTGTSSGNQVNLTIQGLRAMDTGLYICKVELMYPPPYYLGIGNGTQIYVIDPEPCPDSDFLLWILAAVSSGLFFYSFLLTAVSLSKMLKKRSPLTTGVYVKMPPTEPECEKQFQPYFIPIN

[3] = target: T2, human CTLA-4 expressed on cells; test: receptor occupancy on CHO cells, flow cytometry
[4] = target: T1, human PD-1 expressed on cells; test: flow cytometry, CHO cells expressing PD-1 only
[5] = target: T2, human CTLA-4 expressed on cells; test: flow cytometry, CHO cells expressing CTLA-4 only
[6] = target: T2, human CTLA-4 expressed on cells; test: receptor occupancy on CHO cells expressing excess PD-1, flow cytometry
cynomolgus PD-1 = target: T3, cynomolgus PD-1 (cynomolgus, UniProt B0LAJ3 25-170); test: SPR, BIAcore T200; antibody captured on mouse anti-huIgG-Fab, antigen injected
T3 construct: also called cyno PD1
T3 sequence (B0LAJ3 entry or part of it limits assumed): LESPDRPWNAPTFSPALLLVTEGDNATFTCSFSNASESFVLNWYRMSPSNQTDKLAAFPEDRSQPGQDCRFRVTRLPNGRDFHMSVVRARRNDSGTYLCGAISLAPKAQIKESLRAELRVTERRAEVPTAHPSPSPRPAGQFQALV
Description: (§1) Binding experiments were carried out using a BIAcore T200 instrument (BIAcore). To capture the antibody, mouse anti-huIgG-Fab was immobilized on a CM5 chip to a target response of 2000 RU. 100 nM of the DuetMab or mAbs were flowed at 20 μL/min for 5 min to achieve approximately 100 response units of captured antibody. Antigen were then injected serially at a flow rate of 50 μl/min for 5 min. Kinetic parameters (kₒₙ and koff) and dissociation constant (KD) were calculated from a non-linear fit using BIAevaluation 4.1 software.

mouse PD-1 = target: T4, mouse PD-1 (mouse, UniProt Q02242 25-167); test: as above
T4 construct: also called mu PD1
T4 sequence (looked up): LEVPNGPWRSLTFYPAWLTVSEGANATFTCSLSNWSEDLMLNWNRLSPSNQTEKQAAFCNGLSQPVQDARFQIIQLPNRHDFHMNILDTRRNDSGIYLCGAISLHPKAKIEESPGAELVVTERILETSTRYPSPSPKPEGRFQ
Description: as §1

[7] = target: T5, human CTLA-4 antigen (soluble) (human, UniProt P16410 36-161); test: as above
T5 construct: also called hu CTLA4; soluble CTLA-4 antigen
T5 sequence: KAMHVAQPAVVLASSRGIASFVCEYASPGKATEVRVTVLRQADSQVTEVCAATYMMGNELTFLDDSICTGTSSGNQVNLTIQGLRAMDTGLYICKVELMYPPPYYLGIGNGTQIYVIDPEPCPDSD
Description: as §1

cynomolgus CTLA-4 = target: T6, cynomolgus CTLA-4 (cynomolgus, UniProt G7PL88 36-161); test: as above
T6 construct: also called cyno CTLA4
T6 sequence: T5 sequence with S14N, I18T, L106M
Description: as §1

[8] = target: T7, human PD-1 antigen (soluble) (human, UniProt Q15116 25-170); test: as above
T7 construct: also called hu PD1; Biotinylated human PD-1
T7 sequence (Q15116 25-170 limits assumed): as the sequence (B0LAJ3 entry or part of it limits assumed) above, with E2D, A10P, L19V, A35T, R75Q, A144T counted along it
Description: as §1

[9] = target: T2, human CTLA-4 expressed on cells; test: flow cytometry receptor occupancy, CHO cells expressing CTLA-4 only; free CTLA-4 detected with labeled anti-CTLA-4 mAb
[10] = target: T1, human PD-1 expressed on cells; test: flow cytometry receptor occupancy, CHO cells expressing PD-1:CTLA-4 (10:1); free PD-1 detected with labeled anti-PD-1 mAb
[11] = target: T1, human PD-1 expressed on cells; test: flow cytometry receptor occupancy, CHO cells expressing PD-1:CTLA-4 (40:1); free PD-1 detected with labeled anti-PD-1 mAb
[12] = target: T2, human CTLA-4 expressed on cells; test: flow cytometry receptor occupancy, CHO cells expressing PD-1:CTLA-4 (10:1); free CTLA-4 detected with labeled anti-CTLA-4 mAb
[13] = target: T2, human CTLA-4 expressed on cells; test: flow cytometry receptor occupancy, CHO cells expressing PD-1:CTLA-4 (40:1); free CTLA-4 detected with labeled anti-CTLA-4 mAb
[14] = target: T2, human CTLA-4 expressed on cells; test: flow cytometry receptor occupancy, CHO cells expressing PD-1:CTLA-4 (10:1); free CTLA-4 detected with labeled anti-CTLA-4 mAb; remark: listed apart in the source
[15] = target: T2, human CTLA-4 expressed on cells; test: flow cytometry receptor occupancy, CHO cells expressing PD-1:CTLA-4 (40:1); free CTLA-4 detected with labeled anti-CTLA-4 mAb; remark: listed apart in the source

T1 sequence (Q15116 25-288 limits assumed): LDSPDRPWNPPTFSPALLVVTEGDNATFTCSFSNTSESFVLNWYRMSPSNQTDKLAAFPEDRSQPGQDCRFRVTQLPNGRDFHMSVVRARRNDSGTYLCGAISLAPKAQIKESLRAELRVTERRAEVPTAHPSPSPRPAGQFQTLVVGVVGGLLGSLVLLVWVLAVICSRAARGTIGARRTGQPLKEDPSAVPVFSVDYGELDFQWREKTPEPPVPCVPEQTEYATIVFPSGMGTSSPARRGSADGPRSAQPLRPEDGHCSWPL

B1: PD-1/CTLA-4 DuetMab (bispecific antibody, human IgG1, kappa, lambda)
heavy 1: EVQLVESGGGLVQPGGSLRLSCAASGFTFSDYGMHWVRQAPGKGLEWVAYISSGSYTIYSADSVKGRFTISRDNAKNSLYLQMNSLRAEDTAVYYCARRAPNSFYEYYFDYWGQGTTVTVSSASTKGPSVFPLAPSSKSTSGGTAALGCLVKDYFPEPVTVSWNSGALTSGVHTFPAVLQSSGLYSLSSVVTVPSSSLGTQTYICNVNHKPSNTKVDKRVEPKSCDKTHTCPPCPAPEFEGGPSVFLFPPKPKDTLMISRTPEVTCVVVDVSHEDPEVKFNWYVDGVEVHNAKTKPREEQYNSTYRVVSVLTVLHQDWLNGKEYKCKVSNKALPASIEKTISKAKGQPREPQVCTLPPSREEMTKNQVSLSCAVKGFYPSDIAVEWESNGQPENNYKTTPPVLDSDGSFFLVSKLTVDKSRWQQGNVFSCSVMHEALHNHYTQKSLSLSPGK
light 1: QIVLTQSPATLSLSPGERATLSCSASSKHTNLYWSRHMYWYQQKPGQAPRLLIYLTSNRATGIPARFSGSGSGTDFTLTISSLEPEDFAVYYCQQWSSNPFTFGQGTKLEIKRTVAAPSVFIFPPSDEQLKSGTASVVCLLNNFYPREAKVQWKVDNALQSGNSQESVTEQDSKDSTYSLSSTLTLSKADYEKHKVYACEVTHQGLSSPVTKSFNRGEC
heavy 2: not shown
light 2: DIQMTQSPSSLSASVGDRVTITCRASQSINSYLDWYQQKPGKAPKLLIYAASSLQSGVPSRFSGSGSGTDFTLTISSLQPEDFATYYCQQYYSTPFTFGPGTKVEIKGQPKAAPSVTLFPPCSEELQANKATLVCLISDFYPGAVTVAWKADSSPVKAGVETTTPSKQSNNKYAASSYLSLTPEQWKSHRSYSCQVTHEGSTVEKTVAPTEVS
notes: also called DuetMab PD-1/CTLA-4; PD-1/CTLA-4 DuetMab bispecific antibody; copies: 1 + 1 + 1 + 1
fold decrease in PD-1 reporter gene assay, potency [1]: ~9 fold | fold decrease in CTLA-4 reporter gene assay, potency [2]: ~16 fold | fold lower concentration to saturate CTLA-4, against cells expressing only CTLA-4 [3]: ~500 fold | EC50 (read off the curve) [4]: ~4 nM | EC50 (read off the curve) [5]: ~4 nM | fold lower concentration to saturate CTLA-4, against a combination of the monoclonal antibodies [6]: ~250 fold | Kd (cynomolgus PD-1): 0.44 nM | koff (cynomolgus PD-1): 0.000215 s⁻¹ | kon (cynomolgus PD-1): 490000 M⁻¹ s⁻¹ | Kd (mouse PD-1): 496 nM | koff (mouse PD-1): 0.0693 s⁻¹ | kon (mouse PD-1): 140000 M⁻¹ s⁻¹ | Kd [7]: 0.62 nM | koff [7]: 0.000421 s⁻¹ | kon [7]: 684000 M⁻¹ s⁻¹ | Kd (cynomolgus CTLA-4): 0.55 nM | koff (cynomolgus CTLA-4): 0.000634 s⁻¹ | kon (cynomolgus CTLA-4): 1.14e+06 M⁻¹ s⁻¹ | Kd [8]: 0.81 nM | koff [8]: 0.000236 s⁻¹ | kon [8]: 295000 M⁻¹ s⁻¹ | IC50 [9]: 4.6 nM | IC50 [10]: 12.2 nM | IC50 [11]: 14.4 nM | IC50 [12]: 0.38 nM | IC50 [13]: 0.01 nM | IC50 [14]: 0.38 nM | IC50 [15]: 0.01 nM
